The results in this text go back to US10301203B2, “Chloroperoxidase-catalyzed degradation of pharmaceutical pollutants in wastewater” (THE FLORIDA INTERNATIONAL UNIVERSITY BOARD OF TRUSTEES, priority 2017, dated 2019).

Usually Km stands for the substrate concentration at which the rate is half of its maximum.

Substrate in the series: NC(=O)N1c2ccccc2C=Cc2ccccc21
Kind of series: CPO-catalyzed degradation of carbamazepine, kinetic parameters (UV monitoring at 285 nm, CBZ concentration varied). In kind it is biochemical, Caldariomyces fumago. The settings on record: other: CBZ as substrate, 0.02 to 0.11 mM, CPO isolated from C. fumago (5 nM), 100 mM KH2PO4 buffer, 20 mM KCl, pH 2.75, H2O2 0.35 mM or 0.07 mM, absorbance at 285 nm, 0.1 to 0.2 mi. An excerpt: Chloroperoxidase (CPO) is a heme-containing glycoprotein secreted by the fungus Caldariomyces fumago.
The isolation of CPO proposed in this study was a modification of the protocol reported by Morris and Hager (1966), using acetone instead of ethanol as the fractionation solvent. CPO with Rz=1.45 was applied in all reactions (Rz is the purity standard, defined as A398/A280=1.44 for a pure enzyme). All solvents were HPLC grade or Optima® LC/MS grade, purchased from Thermo Fisher Scientific Inc. (Waltham, Mass., USA). Water was produced using a Milli-Q® Biocel™ Ultra-Pure water purification system equipped with 0.22 μM membrane filter cartridge (EMD Millipore, Billerica, Mass., USA), and an organic removal cartridge (Evoqua Water Technologies, Lowell, Mass., USA).
The rate was calculated by monitoring absorbance at 285 nm from 0.1 to 0.2 min. The reaction was carried out in 100 mM KH2PO4 buffer with 20 mM KCl at pH 2.75, with the concentration of CBZ varying from 0.02 to 0.11 mM. UV monitoring was started immediately after adding 0.35 mM H2O2.
All experiments were triplicated and data reported were mean values of three independent measurements with standard deviation.
1 min. after addition of 5 nM CPO, the 285 nm absorption decreased, and stopped […] at 4 min. The 285 nm wavelength was used to measure kinetic parameters of CBZ degradation catalyzed by CPO.

B1: chloroperoxidase (CPO) (Leptoxyphium fumago) (protein)
chain: QEPGSGIGYPYDNNTLPYVAPGPTDSRAPCPALNALANHGYIPHDGRAISRETLQNAFLNHMGIANSVIELALTNAFVVCEYVTGSDCGDSLVNLTLLAEPHAFEHDHSFSRKDYKQGVANSNDFIDNRNFDAETFQTSLDVVAGKTHFDYADMNEIRLQRESLSNELDFPGWFTESKPIQNVESGFIFALVSDFNLPDNDENPLVRIDWWKYWFTNESFPYHLGWHPPSPAREIEFVTSASSAVLAASVTSTPSSLPSGAIGPGAEAVPLSFASTMTPFLLATNAPYYAQDPTLGPND
notes: heme-containing glycoprotein secreted by the fungus Caldariomyces fumago; made in house; host or cells: Caldariomyces fumago (natural producer, not recombinant)
As for B1, the Km is given as 73.35 µM.
